In patent US20070207967A1, “Peptide Inhibitors of Matrix Metalloproteinase Activity” (CTT CANCER TARGETING TECHNOLOGIES OY, priority 2004, published 2007):

Experiments:
pro-MMP-9 = pro-MMP-9 (Homo sapiens, UniProt P14780); experiment: Phage binding to pro-MMP-9 with competitors; conditions: competitor peptides 20 μM, gelatin 2.5 μg/ml
Experimental: Phage display. Phage display selections were made using random peptide libraries CX7-10C and X9-10 (13). Purified human pro-MMP-9 (9) or recombinant MMP-9 C domain (2 μg/ml) was immobilized on microtiter wells and the wells were blocked with BSA. The phage were added in 50 mM Hepes (pH 7.5)/5 mM CaCl2/1 μM ZnCl2/150 mM NaCl/2% BSA. After three rounds of selection the phage sequences were determined (14). The phage binding specificity was tested with pro-MMPs or the recombinant domains (20 ng/well). The phage (10^8 transducing units/well) were allowed to bind in the absence or presence of competitor peptides (20 μM), gelatin (2.5 μg/ml) or TIMP-1 (2.5 μg/ml, Calbiochem) followed by washings with PBS/0.05% Tween20 (PBST). The phage were detected with a peroxidase-conjugated anti-phage antibody (Amersham Biosciences).

MMP-9 C domain [1] = target: T1, MMP-9 C domain (Homo sapiens, UniProt P14780); experiment: β5 I-EGF2+3 binding assay, MMP-9 C domain
T1 construct: MMP-9 (Asp^494-Asp^688) were expressed as described (16); made in house; host or cells: E. coli (β5 fragment)
T1 sequence (P14780 513-707 limits assumed): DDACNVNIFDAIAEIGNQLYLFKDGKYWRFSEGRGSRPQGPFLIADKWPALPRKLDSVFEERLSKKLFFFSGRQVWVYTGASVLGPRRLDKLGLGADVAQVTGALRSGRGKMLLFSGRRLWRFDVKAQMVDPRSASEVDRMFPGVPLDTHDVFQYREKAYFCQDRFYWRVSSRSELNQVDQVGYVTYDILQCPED
Experimental: B5 I-EGF2+3 binding assay. MMP-9 C domain, MMP-2 C domain, CBD, β5 I-EGF2+3 or vitronectin (2 μg/ml) were immobilized in microtiter wells. Biotinylated β5 I-EGF2+3 fragment (2.5 μg/ml) was added to the wells which were preincubated with the competitors for 30 min in 1% BSA-PBST and then incubated further for one hour. Bound biotinylated protein was detected with streptavidin-peroxidase.

MMP-9 C domain [2] = target: T1, MMP-9 C domain; experiment: Dimerization of the MMP-9 C domain; format: binding; conditions: 125I-labelled C domain on unlabelled C domain
Experimental: Dimerization of the MMP-9 C domain. Recombinant C domain or CBD at a 5 μg/ml concentration in PBS were coated on microtiter wells followed by blocking with 1% BSA-PBST. ^125I-labelled C domain was preincubated with the peptides for 30 minutes in 1% BSA-PBST and then added to the wells. After a 2 hour incubation, the wells were washed. Bound radioactivity was eluted with 1% SDS and measured with a gamma-counter.

HT1080 cells = experiment: Pericellular proteolysis (gelatinolysis) of HT1080 cells; format: cell-based, human; conditions: HT1080, 48 h, PDBu, fibronectin/FITC-labelled gelatin coating
Experimental: Pericellular proteolysis. Microtiter wells were coated with a mixture of fibronectin (10 μg/ml) and FITC-labelled gelatin (100 μg/ml) followed by saturation with 1% BSA in PBS. HT1080 cells (50 000 in 100 μl 0.1% BSA/DMEM) were incubated in the presence of 20 nM PDBu (4β-phorbol-12,13-dibutyrate, SigmaAldrich) and the peptides or the MMP-2/MMP-9 selective inhibitor InhI (Calbiochem). As a control non-activated cells and medium without the cells were used. Gelatinolysis after 48 hours was measured as the increase of fluorescence from a 50 μl aliquot of the conditioned medium using Wallac Victor^2 reader.

trypsin-activated MMP-9 = trypsin-activated MMP-9 (Homo sapiens, UniProt P14780); experiment: Gelatinase inhibition assay (gelatin degradation), MMP-9; format: biochemical; conditions: biotinylated gelatin substrate
Chain of trypsin-activated MMP-9 (P14780 107-707 limits assumed): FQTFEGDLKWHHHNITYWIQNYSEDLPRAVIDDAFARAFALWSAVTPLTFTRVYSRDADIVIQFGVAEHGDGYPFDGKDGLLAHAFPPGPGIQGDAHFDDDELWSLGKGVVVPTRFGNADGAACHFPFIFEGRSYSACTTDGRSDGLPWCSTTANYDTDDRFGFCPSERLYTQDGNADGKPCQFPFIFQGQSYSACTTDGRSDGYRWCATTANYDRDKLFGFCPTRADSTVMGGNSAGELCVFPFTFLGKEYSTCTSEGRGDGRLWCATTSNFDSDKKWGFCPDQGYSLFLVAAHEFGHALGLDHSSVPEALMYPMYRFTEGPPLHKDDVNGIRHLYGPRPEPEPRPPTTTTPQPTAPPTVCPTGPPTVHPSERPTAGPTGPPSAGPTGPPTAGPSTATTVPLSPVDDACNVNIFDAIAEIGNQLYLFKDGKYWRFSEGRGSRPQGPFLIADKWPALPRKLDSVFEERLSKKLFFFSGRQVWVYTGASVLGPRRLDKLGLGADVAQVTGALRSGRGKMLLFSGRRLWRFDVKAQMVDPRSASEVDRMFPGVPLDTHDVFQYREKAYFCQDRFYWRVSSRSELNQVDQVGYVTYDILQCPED
Experimental: Gelatinase inhibition assay. Inhibition of aminophenylmercuric acetate (APMA)-activated MMP-2 and trypsin-activated MMP-9 was performed using biotinylated gelatin as a substrate (15).

pro-MMP-2 = experiment: Pro-MMP-2 activation in HT1080 cells, zymography; format: cell-based, human; conditions: PDBu-activated HT1080, peptides 200 μM
Experimental: Activation of MMP-9. THP-1 cells (40 000/100 μl) or confluent HT1080 cells were incubated for 16 h in the presence or absence of 2.5 μg/ml plasminogen, 0.5 μg/ml pro-MMP-3 (Oncogene Research Products), 40 nM PDBu, and the peptides at a 200 μM concentration unless otherwise indicated. Aliquots of the conditioned media were analyzed by gelatin zymography (9). […] The samples were analyzed by gelatin zymography.

Chain of pro-MMP-9 (P14780 20-707 limits assumed): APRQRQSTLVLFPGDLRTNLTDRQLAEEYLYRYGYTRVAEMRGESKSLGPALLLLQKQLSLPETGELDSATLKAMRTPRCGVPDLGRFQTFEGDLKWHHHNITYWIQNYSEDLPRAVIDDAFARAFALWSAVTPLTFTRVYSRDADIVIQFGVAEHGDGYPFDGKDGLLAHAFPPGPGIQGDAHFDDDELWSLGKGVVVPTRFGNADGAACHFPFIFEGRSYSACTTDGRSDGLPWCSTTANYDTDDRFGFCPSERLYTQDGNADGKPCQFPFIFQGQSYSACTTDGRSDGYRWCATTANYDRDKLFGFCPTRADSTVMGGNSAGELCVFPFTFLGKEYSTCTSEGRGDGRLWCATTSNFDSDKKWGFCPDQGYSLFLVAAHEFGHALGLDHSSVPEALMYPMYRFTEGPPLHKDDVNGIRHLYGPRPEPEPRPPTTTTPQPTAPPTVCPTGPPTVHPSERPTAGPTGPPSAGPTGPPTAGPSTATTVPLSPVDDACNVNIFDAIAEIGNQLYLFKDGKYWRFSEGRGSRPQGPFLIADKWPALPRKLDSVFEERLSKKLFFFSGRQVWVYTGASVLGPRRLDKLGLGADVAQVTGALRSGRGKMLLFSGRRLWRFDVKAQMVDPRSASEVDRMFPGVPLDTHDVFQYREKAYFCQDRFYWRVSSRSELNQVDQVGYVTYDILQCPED

## CRVYGPYLLC
pro-MMP-9
  Binding of PPC peptide-bearing phage to pro-MMP-9, competition: not
pro-MMP-9; TIMP-1 2.5 μg/ml
  Binding of the CRV-phage to pro-MMP-9, competition: inhibited
MMP-9 C domain [1]
  Competition of biotinylated β5 I-EGF2+3 binding to the MMP-9 C domain: inhibitable
MMP-9 C domain [2]
  Inhibition of dimerization of the C domain: inhibited
HT1080 cells
  Inhibition of pericellular gelatinolysis: inhibited
trypsin-activated MMP-9
  Inhibition of MMP-9 activity in gelatin degradation assay: did not inhibit
pro-MMP-2
  Inhibition of activation of pro-MMP-2: partially
